From patent US11653679B2, “High-purity steviol glycosides” (PureCircle Sdn Bhd, priority 2014, dated 2023)

Assay: Directed evolution of UGT76G1, Rebaudioside D to Rebaudioside M, round 1 (Example 26)
Type: biochemical
Details: 100 μL fresh lysate, 0.5 mM Rebaudioside D, 30° C., pH 7.2
Method in brief: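 Cleared cell lysate (Bugbuster) incubated with 0.5 mM Rebaudioside D, 3 mM MgCl2 and 2.5 mM UDP-glucose in 50 mM phosphate pH 7.2 at 30 °C. Samples at 2, 4, 7 and 24 h analysed by HPLC-CAD for conversion and initial rate.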

| Molecule | conversion Reb D to Reb M after 24 h [%] | initial rate [Reb M area/min] |
| --- | --- | --- |
| UGT76G1var83: UGT76G1 variant, mutations I43V_Q342E_S357N_S375R_L379G (protein, UniProt Q6VAB4 1-458, looked up, variant I43V Q342E S357N S375R L379G) UDP-glycosyltransferase 76G1: MENKTETTVRRRRRIILFPVPFQGHINPILQLANVLYSKGFSVTIFHTNFNKPKTSNYPHFTFRFILDNDPQDERISNLPTHGPLAGMRIPIINEHGADELRRELELLMLASEEDEEVSCLITDALWYFAQSVADSLNLRRLVLMTSSLFNFHAHVSLPQFDELGYLDPDDKTRLEEQASGFPMLKVKDIKSAYSNWQILKEILGKMIKQTKASSGVIWNSFKELEESELETVIREIPAPSFLIPLPKHLTASSSSLLDHDRTVFQWLDQQPPSSVLYVSFGSTSEVDEKDFLEIARGLVDSKQSFLWVVRPGFVKGSTWVEPLPDGFLGERGRIVKWVPQEEVLAHGAIGAFWTHNGWNSTLESVCEGVPMIFRDFGGDQPLNARYMSDVLKVGVYLENGWERGEIANAIRRVMVDEEGEYIRQNARVLKQKADVSLMKGGSSYESLESLVSYISSL | 0.5 | 4.3E+04 |
| UGT76G1var87: UGT76G1 variant, mutations S241I_L243A_V300A_F314S_N409R (protein, UniProt Q6VAB4 1-458, looked up, variant S241I L243A V300A F314S N409R) UDP-glycosyltransferase 76G1: MENKTETTVRRRRRIILFPVPFQGHINPILQLANVLYSKGFSITIFHTNFNKPKTSNYPHFTFRFILDNDPQDERISNLPTHGPLAGMRIPIINEHGADELRRELELLMLASEEDEEVSCLITDALWYFAQSVADSLNLRRLVLMTSSLFNFHAHVSLPQFDELGYLDPDDKTRLEEQASGFPMLKVKDIKSAYSNWQILKEILGKMIKQTKASSGVIWNSFKELEESELETVIREIPAPIFAIPLPKHLTASSSSLLDHDRTVFQWLDQQPPSSVLYVSFGSTSEVDEKDFLEIARGLADSKQSFLWVVRPGSVKGSTWVEPLPDGFLGERGRIVKWVPQQEVLAHGAIGAFWTHSGWNSTLESVCEGVPMIFSDFGLDQPLNARYMSDVLKVGVYLENGWERGEIARAIRRVMVDEEGEYIRQNARVLKQKADVSLMKGGSSYESLESLVSYISSL |  | 2.1E+07 |
| UGT76G1var88: UGT76G1 variant, mutations A239V_T284I_V310I_Q342K_L379A (protein, UniProt Q6VAB4 1-458, looked up, variant A239V T284I V310I Q342K L379A) UDP-glycosyltransferase 76G1: MENKTETTVRRRRRIILFPVPFQGHINPILQLANVLYSKGFSITIFHTNFNKPKTSNYPHFTFRFILDNDPQDERISNLPTHGPLAGMRIPIINEHGADELRRELELLMLASEEDEEVSCLITDALWYFAQSVADSLNLRRLVLMTSSLFNFHAHVSLPQFDELGYLDPDDKTRLEEQASGFPMLKVKDIKSAYSNWQILKEILGKMIKQTKASSGVIWNSFKELEESELETVIREIPVPSFLIPLPKHLTASSSSLLDHDRTVFQWLDQQPPSSVLYVSFGSISEVDEKDFLEIARGLVDSKQSFLWVIRPGFVKGSTWVEPLPDGFLGERGRIVKWVPQKEVLAHGAIGAFWTHSGWNSTLESVCEGVPMIFSDFGADQPLNARYMSDVLKVGVYLENGWERGEIANAIRRVMVDEEGEYIRQNARVLKQKADVSLMKGGSSYESLESLVSYISSL | 1.6 | 3.8E+05 |
| UGT76G1var85: UGT76G1 variant, mutations T284L_G348P_F377C_P382M_N409R (protein, UniProt Q6VAB4 1-458, looked up, variant T284L G348P F377C P382M N409R) UDP-glycosyltransferase 76G1: MENKTETTVRRRRRIILFPVPFQGHINPILQLANVLYSKGFSITIFHTNFNKPKTSNYPHFTFRFILDNDPQDERISNLPTHGPLAGMRIPIINEHGADELRRELELLMLASEEDEEVSCLITDALWYFAQSVADSLNLRRLVLMTSSLFNFHAHVSLPQFDELGYLDPDDKTRLEEQASGFPMLKVKDIKSAYSNWQILKEILGKMIKQTKASSGVIWNSFKELEESELETVIREIPAPSFLIPLPKHLTASSSSLLDHDRTVFQWLDQQPPSSVLYVSFGSLSEVDEKDFLEIARGLVDSKQSFLWVVRPGFVKGSTWVEPLPDGFLGERGRIVKWVPQQEVLAHPAIGAFWTHSGWNSTLESVCEGVPMIFSDCGLDQMLNARYMSDVLKVGVYLENGWERGEIARAIRRVMVDEEGEYIRQNARVLKQKADVSLMKGGSSYESLESLVSYISSL | 1.8 | 4.0E+05 |
| UGT76G1var86: UGT76G1 variant, mutations E224A_T284L_V396F_Y397E_I407V (protein, UniProt Q6VAB4 1-458, looked up, variant E224A T284L V396F Y397E I407V) UDP-glycosyltransferase 76G1: MENKTETTVRRRRRIILFPVPFQGHINPILQLANVLYSKGFSITIFHTNFNKPKTSNYPHFTFRFILDNDPQDERISNLPTHGPLAGMRIPIINEHGADELRRELELLMLASEEDEEVSCLITDALWYFAQSVADSLNLRRLVLMTSSLFNFHAHVSLPQFDELGYLDPDDKTRLEEQASGFPMLKVKDIKSAYSNWQILKEILGKMIKQTKASSGVIWNSFKALEESELETVIREIPAPSFLIPLPKHLTASSSSLLDHDRTVFQWLDQQPPSSVLYVSFGSLSEVDEKDFLEIARGLVDSKQSFLWVVRPGFVKGSTWVEPLPDGFLGERGRIVKWVPQQEVLAHGAIGAFWTHSGWNSTLESVCEGVPMIFSDFGLDQPLNARYMSDVLKVGFELENGWERGEVANAIRRVMVDEEGEYIRQNARVLKQKADVSLMKGGSSYESLESLVSYISSL | 1.6 | 3.8E+05 |
| UGT76G1var5: UGT76G1 variant, mutations F22Y_I373L_P382M (protein, UniProt Q6VAB4 1-458, looked up, variant F22Y I373L P382M) UDP-glycosyltransferase 76G1: MENKTETTVRRRRRIILFPVPYQGHINPILQLANVLYSKGFSITIFHTNFNKPKTSNYPHFTFRFILDNDPQDERISNLPTHGPLAGMRIPIINEHGADELRRELELLMLASEEDEEVSCLITDALWYFAQSVADSLNLRRLVLMTSSLFNFHAHVSLPQFDELGYLDPDDKTRLEEQASGFPMLKVKDIKSAYSNWQILKEILGKMIKQTKASSGVIWNSFKELEESELETVIREIPAPSFLIPLPKHLTASSSSLLDHDRTVFQWLDQQPPSSVLYVSFGSTSEVDEKDFLEIARGLVDSKQSFLWVVRPGFVKGSTWVEPLPDGFLGERGRIVKWVPQQEVLAHGAIGAFWTHSGWNSTLESVCEGVPMLFSDFGLDQMLNARYMSDVLKVGVYLENGWERGEIANAIRRVMVDEEGEYIRQNARVLKQKADVSLMKGGSSYESLESLVSYISSL | 3.5 | 2.3E+06 |
| UGT76G1var84: UGT76G1 variant, mutations F22L_Q266S_F314S_A352G_S357C (protein, UniProt Q6VAB4 1-458, looked up, variant F22L Q266S F314S A352G S357C) UDP-glycosyltransferase 76G1: MENKTETTVRRRRRIILFPVPLQGHINPILQLANVLYSKGFSITIFHTNFNKPKTSNYPHFTFRFILDNDPQDERISNLPTHGPLAGMRIPIINEHGADELRRELELLMLASEEDEEVSCLITDALWYFAQSVADSLNLRRLVLMTSSLFNFHAHVSLPQFDELGYLDPDDKTRLEEQASGFPMLKVKDIKSAYSNWQILKEILGKMIKQTKASSGVIWNSFKELEESELETVIREIPAPSFLIPLPKHLTASSSSLLDHDRTVFSWLDQQPPSSVLYVSFGSTSEVDEKDFLEIARGLVDSKQSFLWVVRPGSVKGSTWVEPLPDGFLGERGRIVKWVPQQEVLAHGAIGGFWTHCGWNSTLESVCEGVPMIFSDFGLDQPLNARYMSDVLKVGVYLENGWERGEIANAIRRVMVDEEGEYIRQNARVLKQKADVSLMKGGSSYESLESLVSYISSL | 1.2 | 2.3E+05 |
